Data taken from patent publication US20210238260.
Residue numbers refer to the chain shown, from its start. Numbers in names are those of the source.

B1: FIXa variant D104N/K106S/Y155F/K247N/N249S/R318Y/R338E/R403E/E410N (protein)
chain 1: YNSGKLEEFVQGNLERECMEEKCSFEEAREVFENTERTTEFWKQYVDGDQCESNPCLNGGSCKDDINSYECWCPFGFEGKNCELDVTCNIKNGRCEQFCKNSANNSVVCSCTEGYRLAENQKSCEPAVPFPCGRVSVSQTSKLTR
chain 2: VVGGEDAKPGQFPWQVVLNGKVDAFCGGSIVNEKWIVTAAHCVETGVKITVVAGEHNIEETEHTEQNRSVIRIIPHHNYNAAINKYNHDIALLELDEPLVLNSYVTPICIADKEYTNIFLKFGSGYVSGWGRVFHKGYSALVLQYLRVPLVDRATCLESTKFTIYNNMFCAGFHEGGRDSCQGDSGGPHVTEVEGTSFLTGIISWGEECAMKGKYGIYTKVSEYVNWIKNKTKLT
B2: FIXa-Y155F/R318Y/R338E/T343R/R403E/E410N (protein)
chain 1: B1 chain 1 with N104D, S106K
chain 2: B1 chain 2 with N67K, S69N, T163R
B3: FIXa Y155F/I251S/R318Y/R338E/R403E/E410N (protein)
chain 1: B1 chain 1 with N104D, S106K
chain 2: B1 chain 2 with N67K, S69N, I71S
B4: FIXa-D104N/K106S/R318Y/R338E/T343R/R403E/E410N (protein)
chain 1: B1 chain 1
chain 2: B1 chain 2 with N67K, S69N, T163R
B5: FIXa K228N/R318Y/E410N (protein)
chain 1: B1 chain 1 with N104D, S106K
chain 2: B1 chain 2 with K48N, N67K, S69N, E158R, E223R
B6: FIXa Y155F/R318Y/R338E/E410N (protein)
chain 1: B1 chain 1 with N104D, S106K
chain 2: B1 chain 2 with N67K, S69N, E223R
B7: FIXa K247N/N249S/R318Y/R338E/R403E/E410N (protein)
chain 1: B1 chain 1 with N104D, S106K
chain 2: B1 chain 2
B8: FIXa D104N/K106S/Y155F/K247N/N249S/R318Y/R338E/R403E/E410N (protein)
chain 1: B1 chain 1
chain 2: B1 chain 2
B9: FIXa-R318Y/R338E/N346Y/R403E/E410N (protein)
chain 1: B1 chain 1 with N104D, S106K
chain 2: B1 chain 2 with N67K, S69N, N166Y
B10: FIXa I251S/R318Y/R338E/R403E/E410N (protein)
chain 1: B1 chain 1 with N104D, S106K
chain 2: B1 chain 2 with N67K, S69N, I71S
B11: FIXa Y155F/R318Y/R403E/E410N (protein)
chain 1: B1 chain 1 with N104D, S106K
chain 2: B1 chain 2 with N67K, S69N, E158R
B12: FIXa K228N/R318Y/R338E/R403E/E410N (protein)
chain 1: B1 chain 1 with N104D, S106K
chain 2: B1 chain 2 with K48N, N67K, S69N
B13: FIXa R338E/R403E/E410N (protein)
chain 1: B1 chain 1 with N104D, S106K
chain 2: B1 chain 2 with N67K, S69N, Y138R
B14: FIXa D85N/K228N/R318Y/R338E/R403E/E410N (protein)
chain 1: B1 chain 1 with D85N, N104D, S106K
chain 2: B1 chain 2 with K48N, N67K, S69N
B15: FIXa A103N/N105S/K247N/N249S/R318Y/R338E/R403E/E410N (protein)
chain 1: B1 chain 1 with A103N, N104D, N105S, S106K
chain 2: B1 chain 2
B16: FIXa-R318Y/R338E/Y345A/N346D/R403E/E410N (protein)
chain 1: B1 chain 1 with N104D, S106K
chain 2: B1 chain 2 with N67K, S69N, Y165A, N166D
B17: FIXa R318Y/R338E/R403E (protein)
chain 1: B1 chain 1 with N104D, S106K
chain 2: B1 chain 2 with N67K, S69N, N230E
B18: FIXa D203N/F205T/R318Y (protein)
chain 1: B1 chain 1 with N104D, S106K
chain 2: B1 chain 2 with D23N, F25T, N67K, S69N, E158R, E223R, N230E
B19: FIXa D203N/F205T/R338E/R403E (protein)
chain 1: B1 chain 1 with N104D, S106K
chain 2: B1 chain 2 with D23N, F25T, N67K, S69N, Y138R, N230E
B20: FIXa I251S/R318Y/R338E/E410N (protein)
chain 1: B1 chain 1 with N104D, S106K
chain 2: B1 chain 2 with N67K, S69N, I71S, E223R
B21: FIXa D104N/K106S/K247N/N249S/R318Y/R338E/R403E/E410N (protein)
chain 1: B1 chain 1
chain 2: B1 chain 2
B22: FIXa-D104N/K106S/K228N/K247N/N249S/R318Y/R338E/R403E/E410N (protein)
chain 1: B1 chain 1
chain 2: B1 chain 2 with K48N
B23: FIXa variant K247N/N249S/R318Y/R338E/E410N (protein)
chain 1: B1 chain 1 with N104D, S106K
chain 2: B1 chain 2 with E223R
B24: FIXa Y155F/R318Y/R338E/R403E (protein)
chain 1: B1 chain 1 with N104D, S106K
chain 2: B1 chain 2 with N67K, S69N, N230E
B25: FIXa variant Y155F/K247N/N249S/R318Y/R338E/E410N (protein)
chain 1: B1 chain 1 with N104D, S106K
chain 2: B1 chain 2 with E223R
B26: FIXa K247N/N249S/R318Y/R338E/E410N (protein)
chain 1: B1 chain 1 with N104D, S106K
chain 2: B1 chain 2 with E223R
B27: FIXa D104N/K106S/R318Y/R338E/E410N (protein)
chain 1: B1 chain 1
chain 2: B1 chain 2 with N67K, S69N, E223R
B28: FIXa Y155F/K247N/N249S/R318Y/R338E/E410N (protein)
chain 1: B1 chain 1 with N104D, S106K
chain 2: B1 chain 2 with E223R
B29: FIXa R318Y/R338E/E410N (protein)
chain 1: B1 chain 1 with N104D, S106K
chain 2: B1 chain 2 with N67K, S69N, E223R
B30: FIXa Y155F/R338E/R403E/E410N (protein)
chain 1: B1 chain 1 with N104D, S106K
chain 2: B1 chain 2 with N67K, S69N, Y138R, E158R, R178E
B31: FIXa D203N/F205T/R338E (protein)
chain 1: B1 chain 1 with N104D, S106K
chain 2: B1 chain 2 with D23N, F25T, N67K, S69N, Y138R, E223R, N230E
B32: FIXa K228N/R338E/R403E (protein)
chain 1: B1 chain 1 with N104D, S106K
chain 2: B1 chain 2 with K48N, N67K, S69N, Y138R, N230E
B33: FIXa D203N/F205T/E410N (protein)
chain 1: B1 chain 1 with N104D, S106K
chain 2: B1 chain 2 with D23N, F25T, N67K, S69N, Y138R, E158R, E223R
B34: FIXa D104N/K106S/I251S/R318Y/R338E/E410N (protein)
chain 1: B1 chain 1
chain 2: B1 chain 2 with N67K, S69N, I71S, E223R
B35: FIXa D203N/F205T/R338A (protein)
chain 1: B1 chain 1 with N104D, S106K
chain 2: B1 chain 2 with D23N, F25T, N67K, S69N, Y138R, E158A, E223R, N230E
B36: FIXa R318Y/R338E/R403E/E410N (protein)
chain 1: B1 chain 1 with N104D, S106K
chain 2: B1 chain 2 with N67K, S69N
B37: FIXa-R318Y/R338E/Y345A/R403E/E410N (protein)
chain 1: B1 chain 1 with N104D, S106K
chain 2: B1 chain 2 with N67K, S69N, Y165A
B38: FIXa Y155F/K247N/N249S/R318Y/R338E/R403E/E410N (protein)
chain 1: B1 chain 1 with N104D, S106K
chain 2: B1 chain 2
B39: FIXa R318Y/R403E/E410N (protein)
chain 1: B1 chain 1 with N104D, S106K
chain 2: B1 chain 2 with N67K, S69N, E158R
B40: FIXa-R318Y/R338E/T343R/N346D/R403E/E410N (protein)
chain 1: B1 chain 1 with N104D, S106K
chain 2: B1 chain 2 with N67K, S69N, T163R, N166D
B41: FIXa Y155F/K228N/R318Y/R338E/R403E/E410N (protein)
chain 1: B1 chain 1 with N104D, S106K
chain 2: B1 chain 2 with K48N, N67K, S69N
B42: FIXa-R318Y/R338E/T343R/N346Y/R403E/E410N (protein)
chain 1: B1 chain 1 with N104D, S106K
chain 2: B1 chain 2 with N67K, S69N, T163R, N166Y
B43: FIXa Y259F/K265T/Y345T (protein)
chain 1: B1 chain 1 with N104D, S106K
chain 2: B1 chain 2 with N67K, S69N, Y79F, K85T, Y138R, E158R, Y165T, E223R, N230E
B44: FIXa D203N/F205T/K228N (protein)
chain 1: B1 chain 1 with N104D, S106K
chain 2: B1 chain 2 with D23N, F25T, K48N, N67K, S69N, Y138R, E158R, E223R, N230E

Target: Factor X (FX), P00742
Sequence (P00742 whole entry, looked up): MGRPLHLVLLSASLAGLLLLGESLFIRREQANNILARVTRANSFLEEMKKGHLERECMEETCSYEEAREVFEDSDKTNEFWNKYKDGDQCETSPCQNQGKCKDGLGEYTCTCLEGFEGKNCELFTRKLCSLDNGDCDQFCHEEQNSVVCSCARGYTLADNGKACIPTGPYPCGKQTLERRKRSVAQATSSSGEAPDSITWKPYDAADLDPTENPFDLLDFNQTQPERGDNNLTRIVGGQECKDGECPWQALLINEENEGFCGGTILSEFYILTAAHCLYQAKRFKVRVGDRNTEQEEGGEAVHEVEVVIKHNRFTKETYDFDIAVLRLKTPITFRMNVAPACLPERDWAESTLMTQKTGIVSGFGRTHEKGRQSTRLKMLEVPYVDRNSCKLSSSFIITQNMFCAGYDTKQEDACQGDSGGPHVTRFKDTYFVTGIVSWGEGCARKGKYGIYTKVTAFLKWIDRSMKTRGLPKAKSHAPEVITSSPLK

Row | Protein | KM (FX activation by FIXa in the Xase complex with FVIIIa, PC/PS vesicles and Ca2+) [µM] | KM [µM] | also measured
1 | B1 |  |  | kcat: 6.9 s⁻¹
2 | B2 |  |  | kcat of FX activation by FIXa (Xase complex with FVIIIa, PC/PS vesicles, Ca2+): 7.8 s⁻¹
3 | B3 | 0.0433 |  | 
4 | B4 |  |  | kcat of FX activation by FIXa (Xase complex with FVIIIa, PC/PS vesicles, Ca2+): 5.7 s⁻¹
5 | B5 |  | 0.042 | 
6 | B6 |  | 0.016 | 
7 | B7 | 0.0392 |  | 
8 | B8 | 0.0518 |  | 
9 | B9 |  |  | kcat of FX activation by FIXa (Xase complex with FVIIIa, PC/PS vesicles, Ca2+): 3.4 s⁻¹
10 | B10 | 0.0334 |  | 
11 | B11 |  | 0.111 | 
12 | B12 | 0.0361 |  | 
13 | B13 |  | 0.0367 | 
14 | B14 | 0.0393 |  | 
15 | B15 | 0.028 |  | 
16 | B16 |  |  | kcat of FX activation by FIXa (Xase complex with FVIIIa, PC/PS vesicles, Ca2+): 1.2 s⁻¹
17 | B17 |  | 0.0597 | 
18 | B18 |  | 0.0475 | 
19 | B19 |  | 0.0511 | 
20 | B20 | 0.0161 |  | 
21 | B21 | 0.059 |  | 
22 | B22 |  |  | kcat of FX activation by FIXa (Xase complex with FVIIIa, PC/PS vesicles, Ca2+): 6.1 s⁻¹

Row | Protein | KM (FX activation by FIXa in the Xase complex with FVIIIa, PC/PS vesicles and Ca2+) [µM] | KM [µM] | also measured
23 | B23 |  |  | kcat: 3.8 s⁻¹
24 | B24 |  | 0.0671 | 
25 | B25 |  |  | kcat: 4.5 s⁻¹
26 | B26 | 0.0166 |  | 
27 | B27 |  | 0.0189 | 
28 | B28 | 0.0147 |  | 
29 | B29 |  | 0.0139 | 
30 | B30 |  | 0.0336 | 
31 | B31 |  | 0.0241 | 
32 | B32 |  | 0.0592 | 
33 | B33 |  | 0.0455 | 
34 | B34 | 0.0243 |  | 
35 | B35 |  | 0.0385 | 
36 | B36 |  | 0.0432 | 
37 | B37 |  |  | kcat of FX activation by FIXa (Xase complex with FVIIIa, PC/PS vesicles, Ca2+): 1.4 s⁻¹
38 | B38 | 0.0363 |  | 
39 | B39 |  | 0.0942 | 
40 | B40 |  |  | kcat of FX activation by FIXa (Xase complex with FVIIIa, PC/PS vesicles, Ca2+): 5.4 s⁻¹
41 | B41 | 0.0408 |  | 
42 | B42 |  |  | kcat of FX activation by FIXa (Xase complex with FVIIIa, PC/PS vesicles, Ca2+): 4.6 s⁻¹
43 | B43 | 0.0309 |  | 
44 | B44 |  | 0.0399 | 
